# Results reported in article PMC10454150, “Molecular Mechanism of a FRET Biosensor for the Cardiac Ryanodine Receptor Pathologically Leaky State” (International Journal of Molecular Sciences, 2023).
# Ends that are not written are not given here. QXL520 = non-fluorescent dark acceptor (quencher) probe
# B1: acceptor-labeled DPc10 (A-DPc10), QXL520 at the N-terminus (peptide)
# peptide: QXL520-GFCPDHKAAMVLFLDRVYGIEVQDFLLHLLEVGFLP
# notes: also called acceptor-DPc10; source: synthetic peptide (AnaSpec)
# Legend:
# [1] = target: type 2 ryanodine receptor (RyR2) channel in cardiac SR membranes (pig (endogenous in porcine heart SR)); test: FRET or BRET; as a1 but 300 uM Ca2+, no DPc10
# [2] = target: type 2 ryanodine receptor (RyR2) channel in cardiac SR membranes (pig (endogenous in porcine heart SR)); test: FRET or BRET; as a1, 30 nM Ca2+, SR pre-treated with 50 uM unlabeled DPc10 for 60 min; apparent affinity
# [3] = target: T1, type 2 ryanodine receptor (RyR2) channel in cardiac SR membranes (pig (endogenous in porcine heart SR), UniProt A0A5G2R1W3 1-4900); test: FRET or BRET; as a6 but 300 uM Ca2+, no CaM; Hill fit; conditions: one partner purified
# T1 construct: type 2 ryanodine receptor (RyR2), pig heart; homotetrameric assembly of 565-kDa protomers; 'intact RyR2 in cardiac SR vesicles'; In every assay RyR2 stood in native SR membranes and was preloaded with a donor-labelled FKBP12.6 (D-FKBP); also called cardiac ryanodine receptor; source: endogenous, SR vesicles isolated by differential ultracentrifugation of porcine ventricular tissue; residual …
# [4] = target: T1, type 2 ryanodine receptor (RyR2) …; test: FRET or BRET; FRET from D-14-FKBP on RyR2 in cardiac SR to A-DPc10, series of [A-DPc10]; Ca2+ not stated for this experiment; Hill fit; conditions: one partner purified
# [5] = target: T1, type 2 ryanodine receptor (RyR2) …; test: FRET or BRET; FRET from D-49-FKBP on RyR2 in cardiac SR to A-DPc10, series of [A-DPc10]; Ca2+ not stated for this experiment; Hill fit; conditions: one partner purified
# [6] = target: T1, type 2 ryanodine receptor (RyR2) …; test: FRET or BRET; FRET from D-85-FKBP on RyR2 in cardiac SR to A-DPc10, series of [A-DPc10]; Ca2+ not stated for this experiment; Hill fit; conditions: one partner purified
# [7] = target: T1, type 2 ryanodine receptor (RyR2) …; test: FRET or BRET; as a6, 30 nM Ca2+, pre-incubated 40 min with unlabeled CaM (1 uM by the legend, 30 uM by the text); apparent affinity; Hill fit; conditions: one partner purified
# [8] = target: T1, type 2 ryanodine receptor (RyR2) …; test: FRET or BRET; as a6 but 300 uM Ca2+, pre-incubated 40 min with unlabeled CaM (1 uM by the legend, 30 uM by the text); apparent affinity; Hill fit; conditions: one partner purified
# [9] = target: T1, type 2 ryanodine receptor (RyR2) …; test: FRET or BRET; FRET from D-32-FKBP (loss-of-inhibition variant) on RyR2 in cardiac SR to A-DPc10, series of [A-DPc10]; Ca2+ not stated for this experiment; Hill fit; conditions: one partner purified
# [10] = target: T1, type 2 ryanodine receptor (RyR2) …; test: FRET or BRET; FRET from D-FKBP (labelled position not stated for this experiment) on RyR2 in cardiac SR to A-DPc10 (QXL520), series of [A-DPc10]; 30 nM Ca2+, no CaM; Hill fit; conditions: one partner purified
# [11] = target: T1, type 2 ryanodine receptor (RyR2) …; test: as above; conditions: one partner purified; remark: listed apart in the source
Molecule,fold higher affinity in 300 uM Ca2+ against 30 nM Ca2+ [1] [fold],fold decrease of apparent affinity with 50 uM DPc10 against no DPc10 [2] [fold],Kd [3] [µM],Kd [4] [µM],Kd [5] [µM],Kd [6] [µM],Kd [7] [µM],Kd [8] [µM],Kd [9] [µM],Kd [10] [µM],Kd [11] [µM]
"acceptor-labeled calmodulin (A-CaM), Alexa Fluor 555 at a cysteine substituted at position 34 (natural protein)",2.7,4,,,,,,,,,
B1,,,13.2,10,9.9,10.4,14.6,33.9,13.1,10.3,10.4
